Measured values taken from patent US20160272995A1, “MANIPULATION OF PLASMODESMAL CONNECTIVITY TO IMPROVE PLANT YIELD AND FITNESS” (UNIVERSITY OF DELAWARE, priority 2013, published 2016).
Where “and” joins values, the source holds several entries; their conditions need not be identical. Equal values may be shown once.

Tests used:
[1] = test system: Arabidopsis thaliana; assay: Drought test: 2 weeks water withdrawal, then rewatering; type: in vivo; details: rewatering after 2 weeks water withdrawal
Description: All plant lines were grown for 2 weeks with water prior to the 2 week water withdrawal. (a) Plants having a severe knock down of PDLP5 (pdlp5-1) and PDLP5-m5 plants bolt faster than plants overexpressing PDLP5 (OX) and wild type (WT) plants. (b) Plants overexpressing PDLP5 (OX) revive 3 days post rewatering (DPR). (c) Plants overexpressing PDLP5 (OX) fully recover and 10 days post rewatering (DPR); wild type (WT) plants are dead, and PDLP5-m5 plants continue to survive.
(a) Plants overexpressing PDLP5 (OX), wild type (WT) plants, plants having a severe knock down of PDLP5 (pdlp5-1), and three different PDLP5-m5 plants (T3-4-2, T2-6, and T2-26) which were all grown a different number of days as required to reach same rosette size before water withdrawal. Plants having the same rosette size are referred to as “same day bolting samples.” (b) Same day bolting samples of plants overexpressing PDLP5 (OX), wild type (WT) plants, plants having a severe knock down of PDLP5 (pdlp5-1), and three different PDLP5-m5 plants (T3-4-2, T2-6, and T2-26) at the end of a 2 week water withdrawal. (c) Same day bolting samples of plants overexpressing PDLP5 (OX) and two different PDLP5-m5 plants (T3-4-2 and T2-26) recover fully 3 days post rewatering.
Transgenic T1 plants were selected on basta+plates and homozygous T2 lines were identified by segregation test on T3 plants. For the drought test, homozygous lines were grown in soil for the 2 weeks with watering followed by 2 weeks of water withdrawal. Tolerance to drought stress of the PDLP5-m5 was assessed by the plant growth or death upon resuming watering.
PDLP5-m5 plants were evaluated by exposing them to drought conditions. PDLP-m5 plants were grown under normal conditions with water, water was withdrawn for 2 weeks, and rewatering was commenced. Plants having a severe knock down of PDLP5 (pdlp5-1) and PDLP5-m5 plants bolt faster than plants overexpressing PDLP5 and wild type plants (FIG. 13A). […] The early bolting of the PDLP5-m5 plants appeared to affect plant revival. Therefore, the experiment was repeated using same day bolting samples. Briefly, plants having the same rosette size were used, regardless of the number of days required to achieve that rosette size (FIG. 14A).

[2] = test system: LAX3pro:LAX3-YFP; assay: LAX3pro:LAX3-YFP signal in overlying Co cells after gravistimulation; type: in vivo, Arabidopsis thaliana
Description: (A) Seedlings were gravistimulated at 3 days post germination and the LAX3::LAX3-YFP signal was monitored under a confocal microscope from 14 hours post-gravitropic induction through 36 hours post-gravitropic induction at the root bend. Images were selected to show the earliest detection time points. […] Scale bars, 50 μm. (B) Quantification of relative occurrence of LAX3-YFP signal in Co at 22 hours post-gravitropic induction (hpg) based on the data presented in Table 3.
We monitored LAX3-YFP signal accumulation in overlying Co using the gravitropic assay.
Arabidopsis seedlings expressing LAX3::LAX3:YFP in the desired background were grown as described above for three days, followed by gravistimulation by turning the plates 90° . The cortical cell fluorescence at the root bend was monitored at different time points using a Zeiss LSM 780 confocal upright light microscope using a W Plan-Apochromat 20×/1.0 DIC M27 75 mm objective and the […] excitation line of an argon laser with 520-550 nm band pass emission filter. Images are presented as 3-D composites of 30 μm-thick z-stacks.

[3] = Arabidopsis plants; cited from earlier work
[4] = test system: Pseudomonads; details: Arabidopsis plants; cited from earlier work
[5] = 22 hours post-gravitropic stimulation

B1: PDLP5OE: Wild-type A. thaliana PDLP5 protein (SEQ ID NO:4) constitutively overexpressed in plants under the 35S promoter (protein, listed as Arabidopsis thaliana)
chain: MIKTKTTSLLCFLLTAVILMNPSSSSPTDNYIYAVCSPAKFSPSSGYETNLNSLLSSFVTSTAQTRYANFTVPTGKPEPTVTVYGIYQCRGDLDPTACSTCVSSAVAQVGALCSNSYSGFLQMENCLIRYDNKSFLGVQDKTLILNKCGQPMEFNDQDALTKASDVIGSLGTGDGSYRTGGNGNVQGVAQCSGDLSTSQCQDCLSDAIGRLKSDCGMAQGGYVYLSKCYARFSVGGSHARQTPGPNFGHEGEKGNKDDNGVGKTLAIIIGIVTLIILLVVFLAFVGKCCRKLQDEKWCK
outcome upon rewatering [1]: recovered after rewatering | LAX3pro:LAX3-YFP cortical signal, ratio PDLP5:WT ([2]; 24 hpg): 0.42 and 0.68 | LAX3pro:LAX3-YFP cortical signal, seedlings ([2]; 24 hpg): 33% | LAX3pro:LAX3-YFP cortical signal, ratio PDLP5:WT ([2]; 24 hpg, mean): 0.55 | LAX3pro:LAX3-YFP cortical signal, ratio PDLP5:WT ([2]; 36 hpg): 1 | ratio to WT of seedlings expressing LAX3pro:LAX3-YFP in Co cells [2, 5]: 0 | seedlings expressing LAX3pro:LAX3-YFP in overlaying Co cells [2, 5]: no fluorescent signals evident | total SA compared with the wild-type control [3]: 15 fold | immunity to infection [4]: innate immunity to Pseudomonads infection
